Substrate in data set [1]: O=P(O)(O)OC[C@H]1O[C@H](OP(=O)(O)OP(=O)(O)O)[C@H](O)[C@@H]1O
Description: purified protein, by the assay type. The settings on record: other: 0.03 M phosphate buffer, 0.012 M MgCl2, 1 mM DTT, pH 7.4, 25 °C, bases at 500 μM PRib-PP, PRib-PP at 40 μM guanine.

Substrate in data set [2]: O=c1[nH]cnc2nc[nH]c12
Description: purified protein, by the assay type. The note with it: other: 0.03 M phosphate buffer, 0.012 M MgCl2, 1 mM DTT, pH 7.4, 25 °C, bases at 500 μM PRib-PP, PRib-PP at 40 μM guanine.

B1: TbrHGPRT (Trypanosoma brucei brucei) (protein)
chain: MEPACKYDFATSVLFTEAELHTRMRGVAQRIADDYSNCNLKPLENPLVIVSVLKGSFVFTADMVRILGDFGVPTRVEFLRASSYGHDTKSCGRVDVKADGLCDIRGKHVLVLEDILDTALTLREVVDSLKKSEPASIKTLVAIDKPGGRKIPFTAEYVVADVPNVFVVGYGLDYDQSYREVRDVVILKPSVYETWGKELERRKAAGEAKR
With B1, in data set [1], the Michaelis-Menten constant (Km) was 103 ± 16 µM. In data set [2], the Km turned out to be 5.5 ± 0.3 µM, the kcat worked out at 17.1 s⁻¹ and the kcat/Km stood at 3.1e+06 M⁻¹ s⁻¹.

For orientation: Km means the concentration of substrate that gives half-maximal velocity. The kcat is the maximal rate divided by the concentration of active sites. Usually kcat/Km stands for the second-order rate constant that governs catalysis at low substrate concentration.

The record behind these values is publication PMC5081515, “Crystal structures and inhibition of Trypanosoma brucei hypoxanthine–guanine phosphoribosyltransferase” (Scientific Reports, 2016).
